Experiments:
[1] = target: HLA-B*57:01; assay: IEDB peptide-MHC binding, purified MHC/direct/fluorescence; filed as Kd, often an IC50 or EC50 that approximates it; ≥ and ≤ were set here for values at or beyond the usual limits of such assays
[2] = target: HLA-A*02:19; assay: as above
[3] = target: HLA-A*02:16; assay: as above
[4] = target: HLA-A*26:01; assay: as above
[5] = target: HLA-A*03:01; assay: as above
[6] = target: HLA-B*51:01; assay: as above
[7] = target: HLA-B*15:01; assay: as above
[8] = target: HLA-A*02:01; assay: as above
[9] = target: HLA-B*27:03; assay: as above
[10] = target: HLA-B*46:01; assay: as above
[11] = target: HLA-A*69:01; assay: as above
[12] = target: HLA-A*02:12; assay: as above
[13] = target: HLA-A*02:11; assay: as above
[14] = target: HLA-B*15:17; assay: as above
[15] = target: HLA-A*02:03; assay: as above
[16] = target: HLA-A*29:02; assay: as above; details: source organism: Bacillus anthracis str. 'Ames Ancestor'
[17] = target: HLA-A*24:03; assay: as above
[18] = target: HLA-B*18:01; assay: as above
[19] = target: HLA-C*15:02; assay: as above
[20] = target: HLA-B*83:01; assay: IEDB peptide-MHC binding, purified MHC/competitive/fluorescence; filed as Kd, often an IC50 or EC50 that approximates it; ≥ and ≤ were set here for values at or beyond the usual limits of such assays
[21] = target: HLA-C*14:02; assay: as above; details: source organism: Yellow fever virus
[22] = target: HLA-B*45:06; assay: as above
[23] = target: HLA-B*15:42; assay: as above
[24] = target: HLA-A*02:01; assay: as above
[25] = target: HLA-B*39:01; assay: IEDB peptide-MHC binding, purified MHC/direct/fluorescence; filed as Kd, often an IC50 or EC50 that approximates it; ≥ and ≤ were set here for values at or beyond the usual limits of such assays
[26] = target: HLA-A*68:02; assay: as above
[27] = target: HLA-A*01:01; assay: as above; details: source organism: Influenza A virus (A/duck/Vietnam/15/2003(H5N1))
[28] = target: HLA-B*58:01; assay: as above; details: source organism: Influenza A virus (A/duck/Vietnam/15/2003(H5N1))
[29] = target: HLA-B*08:03; assay: as above; details: source organism: Influenza A virus(A/swine/Shandong/fZC/2003(H9N2))
[30] = target: HLA-B*07:02; assay: as above; details: source organism: Influenza A virus (A/duck/Vietnam/15/2003(H5N1))
[31] = target: HLA-B*27:05; assay: as above; details: source organism: Influenza A virus (A/duck/Vietnam/15/2003(H5N1))
[32] = target: HLA-B*40:01; assay: as above; details: source organism: Influenza A virus (A/duck/Vietnam/15/2003(H5N1))
[33] = target: HLA-A*30:01; assay: IEDB peptide-MHC binding, purified MHC/competitive/fluorescence; filed as Kd, often an IC50 or EC50 that approximates it; ≥ and ≤ were set here for values at or beyond the usual limits of such assays; details: source organism: Influenza A virus (A/X-31(H3N2))
[34] = target: HLA-B*48:01; assay: as above
[35] = target: HLA-C*05:01; assay: IEDB peptide-MHC binding, purified MHC/direct/fluorescence; filed as Kd, often an IC50 or EC50 that approximates it; ≥ and ≤ were set here for values at or beyond the usual limits of such assays; details: source organism: human gammaherpesvirus 4
[36] = target: HLA-A*69:01; assay: IEDB peptide-MHC binding, purified MHC/competitive/fluorescence; filed as Kd, often an IC50 or EC50 that approximates it; ≥ and ≤ were set here for values at or beyond the usual limits of such assays; details: source organism: human gammaherpesvirus 4
[37] = target: HLA-C*04:01; assay: as above; details: source organism: human gammaherpesvirus 4
[38] = source organism: Bacillus anthracis str. 'Ames Ancestor'
[39] = source organism: Yellow fever virus
[40] = source organism: Camelpox virus CMS
[41] = source organism: Burkholderia mallei ATCC 23344
[42] = source organism: Influenza A virus (A/duck/Vietnam/15/2003(H5N1))
[43] = source organism: Vibrio vulnificus YJ016
[44] = source organism: human gammaherpesvirus 4
[45] = source organism: Encephalitozoon cuniculi GB-M1

**Q.** Which results are given for TKAGMAQYL?
**A.** Kd [1, 38]: ≥ 20 µM; Kd [2, 38]: ≥ 20 µM; Kd [3, 38]: ≥ 20 µM; Kd [4, 38]: ≥ 20 µM; Kd [5, 38]: ≥ 20 µM; Kd [6, 38]: ≥ 20000 nM; Kd [7, 38]: ≥ 20 µM; Kd [8, 38]: ≥ 20 µM; Kd [9, 38]: ≥ 20 µM; Kd [10, 38]: ≥ 20 µM; Kd [11, 38]: ≥ 20 µM; Kd [12, 38]: ≥ 20 µM; Kd [13, 38]: ≥ 20 µM; Kd [14, 38]: ≥ 20000 nM; Kd [15, 38]: ≥ 20 µM; Kd [16]: ≥ 20 µM; Kd [17, 38]: ≥ 20 µM; Kd [18, 38]: ≥ 20 µM

**Q.** Which results are given for MWHVTRGAF?
**A.** Kd [19, 39]: ≥ 20000 nM; Kd [20, 39]: ≥ 5 µM; Kd [21]: 2.8 nM; Kd [22, 39]: ≥ 5 µM; Kd [23, 39]: ≥ 5 µM

**Q.** Which Kd [19, 40] does the source give for IVIEAIHTV here?
**A.** Its Kd is 341 nM.

**Q.** And the Kd [24, 40]?
**A.** Its Kd is 2.1 nM.

**Q.** Which results are given for LVTGAGSGF?
**A.** Kd [1, 41]: ≥ 20 µM; Kd [25, 41]: ≥ 20 µM; Kd [2, 41]: ≥ 20 µM; Kd [3, 41]: ≥ 20 µM; Kd [4, 41]: ≥ 20 µM; Kd [5, 41]: ≥ 20 µM; Kd [8, 41]: ≥ 20 µM; Kd [9, 41]: ≥ 20 µM; Kd [10, 41]: ≥ 20 µM; Kd [11, 41]: ≥ 20 µM; Kd [12, 41]: ≥ 20 µM; Kd [13, 41]: ≥ 20 µM; Kd [14, 41]: 148 nM; Kd [15, 41]: ≥ 20 µM; Kd [17, 41]: ≥ 20 µM; Kd [26, 41]: ≥ 20 µM; Kd [18, 41]: ≥ 20 µM

**Q.** How did the Kd [1, 42] turn out when SHEGEGIPL was run?
**A.** Its Kd is no less than 20 µM.

**Q.** And the Kd [27]?
**A.** The Kd was no less than 20 µM.

**Q.** What about the Kd [25, 42] of the same sequence?
**A.** The Kd was 0.0995 µM.

**Q.** And the Kd ([4]; source organism: Influenza A virus(A/swine/Shandong/fZC/2003(H9N2)))?
**A.** The Kd was no less than 20 µM.

**Q.** And the Kd [5, 42]?
**A.** Its Kd is no less than 20 µM.

**Q.** What about the Kd [7, 42] of the same sequence?
**A.** The Kd was no less than 20 µM.

**Q.** And the Kd [28]?
**A.** The Kd was no less than 20 µM.

**Q.** What about the Kd [8, 42] of the same sequence?
**A.** The Kd was no less than 20 µM.

**Q.** And the Kd [29]?
**A.** Its Kd is no less than 20 µM.

**Q.** What about the Kd [10, 42] of the same sequence?
**A.** The Kd was no less than 20 µM.

**Q.** And the Kd [30]?
**A.** Its Kd is no less than 20 µM.

**Q.** What about the Kd [11, 42] of the same sequence?
**A.** Its Kd is no less than 20 µM.

**Q.** What about the Kd [14, 42] of the same sequence?
**A.** The Kd was no less than 20000 nM.

**Q.** And the Kd [31]?
**A.** Its Kd is no less than 20 µM.

**Q.** What about the Kd [26, 42] of the same sequence?
**A.** The Kd was no less than 20 µM.

**Q.** What about the Kd [18, 42] of the same sequence?
**A.** Its Kd is no less than 20 µM.

**Q.** And the Kd [32]?
**A.** The Kd was no less than 20 µM.

**Q.** And the Kd [33]?
**A.** The Kd was no less than 20 µM.

**Q.** What about the Kd ([34]; source organism: Influenza A virus (A/X-31(H3N2))) of the same sequence?
**A.** The Kd was no less than 20000 nM.

**Q.** For RQVWWKALL, which Kd ([34]; source organism: Vibrio cholerae MAK 757) is on record?
**A.** Its Kd is 22.6 nM.

**Q.** What does the source list for FPLWNTEKI?
**A.** Kd [1, 43]: ≥ 20 µM; Kd [2, 43]: ≥ 20 µM; Kd [3, 43]: ≥ 20 µM; Kd [4, 43]: ≥ 20 µM; Kd [5, 43]: ≥ 20 µM; Kd [6, 43]: 71 nM; Kd [7, 43]: ≥ 20 µM; Kd [8, 43]: ≥ 20 µM; Kd [9, 43]: ≥ 20 µM; Kd [10, 43]: ≥ 20 µM; Kd [12, 43]: ≥ 20 µM; Kd [15, 43]: ≥ 20 µM; Kd [18, 43]: ≥ 20 µM

**Q.** Which Kd [35] does the source give for FTASVSTVV here?
**A.** The Kd was 3.95 µM.

**Q.** And the Kd [20, 44]?
**A.** The Kd was no less than 5 µM.

**Q.** And the Kd [24, 44]?
**A.** The Kd was 2.7 nM.

**Q.** And the Kd [36]?
**A.** Its Kd is no more than 0.1 nM.

**Q.** What about the Kd [22, 44] of the same sequence?
**A.** The Kd was no less than 5 µM.

**Q.** What about the Kd [37] of the same sequence?
**A.** The Kd was no less than 5 µM.

**Q.** What about the Kd [23, 44] of the same sequence?
**A.** The Kd was no less than 5 µM.

**Q.** RNMSRIFPY was tested. Which Kd [25, 45] did it give?
**A.** Its Kd is no less than 20 µM.

**Q.** And the Kd [2, 45]?
**A.** Its Kd is no less than 20 µM.

**Q.** And the Kd [3, 45]?
**A.** Its Kd is no less than 20 µM.

**Q.** What about the Kd [5, 45] of the same sequence?
**A.** Its Kd is no less than 20 µM.

**Q.** What about the Kd [9, 45] of the same sequence?
**A.** Its Kd is no less than 20 µM.

**Q.** What about the Kd [10, 45] of the same sequence?
**A.** Its Kd is no less than 20 µM.

**Q.** And the Kd [11, 45]?
**A.** Its Kd is no less than 20 µM.

**Q.** What about the Kd [12, 45] of the same sequence?
**A.** Its Kd is no less than 20 µM.

**Q.** What about the Kd [14, 45] of the same sequence?
**A.** The Kd was 180 nM.

**Q.** What about the Kd [15, 45] of the same sequence?
**A.** The Kd was no less than 20 µM.
